B1: EHEE_rd2_1257 (parent)
chain: EEERTFTNEEEARKAKKEAEKRGLRVTVTKDGTTWRVRIG

Variants of: B1
Experiment: folding stability dG (cDNA display proteolysis); higher = more stable
Details: PBS, room temperature

| Variant | folding stability dG [kcal/mol] |
| --- | --- |
| EEERTFTNEEEARKAKQEAEKRGLRVTVTKDGTTWRVRIG | 2.36 |
| EEERTFTNEEEARKAKVEAEKRGLRVTVTKDGTTWRVRIG | 2.27 |
| EEERTFTNEEEARKAKLEAEKRGLRVTVTKDGTTWRVRIG | 2.45 |
| EEERFFTNEEEARKAKKEAEKRGLRVTVTKDGTTWRVRIG | 2.19 |
| EEERSFTNEEEARKAKKEAEKRGLRVTVTKDGTTWRVRIG | 1.69 |
| EEERHFTNEEEARKAKKEAEKRGLRVTVTKDGTTWRVRIG | 1.68 |
| EEERTFTNEEEARKAKKEAEKRGLRVTVTKDSTTWRVRIG | 0.582 |
| EEERTFTNEEEARKAKKEAEKRGLRVTVTKDDTTWRVRIG | 1.26 |
| EEERTFTNEEEARKAKKEAEKRGLRVTVTKDATTWRVRIG | 0.985 |
| EEERTFTNEEEARKAKKEAEKRGLRVTVTKDKTTWRVRIG | 0.693 |
| EEERTFENEEEARKAKKEAEKRGLRVTVTKDGTTWRVRIG | 1.94 |
| EEERTFINEEEARKAKKEAEKRGLRVTVTKDGTTWRVRIG | 1.56 |
| EEERTFLNEEEARKAKKEAEKRGLRVTVTKDGTTWRVRIG | 1.79 |
| EEERTFDNEEEARKAKKEAEKRGLRVTVTKDGTTWRVRIG | 2.25 |
| EHERTFTNEEEARKAKKEAEKRGLRVTVTKDGTTWRVRIG | 2.12 |
| EPERTFTNEEEARKAKKEAEKRGLRVTVTKDGTTWRVRIG | 1.43 |
| EAERTFTNEEEARKAKKEAEKRGLRVTVTKDGTTWRVRIG | 1.75 |
| EEERTFTNEEEARKAKKEAEKRGLRFTVTKDGTTWRVRIG | 0.359 |
| EEERTFTNEEEARKAKKEAEKRGLRATVTKDGTTWRVRIG | 2.13 |
| EEERTFTNEEEARKAKKEAEKRGLRPTVTKDGTTWRVRIG | -0.777 |
| EEERTFTNEEEARKAKKEAEKRGVRVTVTKDGTTWRVRIG | 1.21 |

| Variant | folding stability dG [kcal/mol] |
| --- | --- |
| EEERTFTNEEEARKAKKEAEKRGLRVTVTKDGTTWRVRIV | 2.73 |
| EEERTFTNEEEARKAKKEAEKRGLRVTVTKDGTTWRVRIE | 2.56 |
| EEERTFTNEEEARKAKKEAEKRGLRVTVTKDGTTWRVRIF | 3.04 |
| EEERTFTNEEEARKAKKEAEKRGLRVTVTKDGTTWRVRIL | 2.71 |
| EEERTFTNEEEARKAKKEAEKRGLRVTVTKDGTTWRVRIH | 2.68 |
| EEERTFTNEEEARKAKKEAEKRGLRVTVTKDGTTWQVRIG | 1.23 |
| EEERTFTNEEEARKAKKEAEKRGLRVTVTKDGTTWWVRIG | 1.7 |
| EEERTFTNEEEARKAKKEAEKRGLRVTVTKDGTTWPVRIG | 0.209 |
| EEERTFTNEEEARKAKKEAEHRGLRVTVTKDGTTWRVRIG | 1.82 |
| EEERTFTNEEEARKAKKEAEMRGLRVTVTKDGTTWRVRIG | 2.45 |
| EEERTFTNEEEARKAKKEAEIRGLRVTVTKDGTTWRVRIG | 1.93 |
| EEERTFTNEEEARKAKKEAESRGLRVTVTKDGTTWRVRIG | 2.38 |
| EEERTFTNEEEARKAKKEAEVRGLRVTVTKDGTTWRVRIG | 1.82 |
| EEERTFTNEEEARKAKKEAEKRGLRVTVTKDGTFWRVRIG | 2.53 |
| EEERTFTNEEEARKAKKEAEKRGLRVTVTKDGTTWRDRIG | 0.331 |
| EEERTFTNEEEARKAKKEAEKRGLRVTVTKDGTTWRCRIG | 1.05 |
| EEERTFTTEEEARKAKKEAEKRGLRVTVTKDGTTWRVRIG | 2.35 |
| EEERTFTFEEEARKAKKEAEKRGLRVTVTKDGTTWRVRIG | 1.09 |
| EEERTFTDEEEARKAKKEAEKRGLRVTVTKDGTTWRVRIG | 1.76 |
| EEERTFTKEEEARKAKKEAEKRGLRVTVTKDGTTWRVRIG | 1.5 |
| EEERTFTHEEEARKAKKEAEKRGLRVTVTKDGTTWRVRIG | 1.34 |

| Variant | folding stability dG [kcal/mol] |
| --- | --- |
| EEERTFTNEEEARKAKKEAYKRGLRVTVTKDGTTWRVRIG | 1.03 |
| EEERTFTNEEEARKAKKEAAKRGLRVTVTKDGTTWRVRIG | 1.2 |
| EEERTFTNEEEARKAKKEASKRGLRVTVTKDGTTWRVRIG | 0.861 |
| EEERTMTNEEEARKAKKEAEKRGLRVTVTKDGTTWRVRIG | 0.184 |
| EEERTYTNEEEARKAKKEAEKRGLRVTVTKDGTTWRVRIG | 2.19 |
| EEERTTTNEEEARKAKKEAEKRGLRVTVTKDGTTWRVRIG | -0.137 |
| EEERTFTNEEEARKAKKEAEKRGLRVQVTKDGTTWRVRIG | 1.49 |
| EEERTFTNEEEARKAKKEAEKRGLRVFVTKDGTTWRVRIG | 1.83 |
| EEERTFTNEEEARYAKKEAEKRGLRVTVTKDGTTWRVRIG | 2.02 |
| EEERTFTNEEEARTAKKEAEKRGLRVTVTKDGTTWRVRIG | 1.93 |
| EEERTFTNEEEARDAKKEAEKRGLRVTVTKDGTTWRVRIG | 1.86 |
| EEERTFTNEEEARQAKKEAEKRGLRVTVTKDGTTWRVRIG | 2.18 |
| EEERTFTNEEEARSAKKEAEKRGLRVTVTKDGTTWRVRIG | 1.89 |
| EEERTFTNEEEARMAKKEAEKRGLRVTVTKDGTTWRVRIG | 2.15 |
| EEERTFTNEGEARKAKKEAEKRGLRVTVTKDGTTWRVRIG | 1.81 |
| EEERTFTNEREARKAKKEAEKRGLRVTVTKDGTTWRVRIG | 2.23 |
| EEERTFTNESEARKAKKEAEKRGLRVTVTKDGTTWRVRIG | 1.89 |
| EEERTFTNEAEARKAKKEAEKRGLRVTVTKDGTTWRVRIG | 2.16 |
| EEERTFTNIEEARKAKKEAEKRGLRVTVTKDGTTWRVRIG | 1.96 |
| EEERTFTNFEEARKAKKEAEKRGLRVTVTKDGTTWRVRIG | 2.37 |

— the MegaScale stability set (Tsuboyama et al. 2023)
